From patent US20190218308A1 (INNATE PHARMA, published 2019) come the findings set out here.

Assay [1] concerns the target T1, CD39 mutant 5 (human, UniProt P49961 1-510).
T1 construct: Expressed on Hek-293T cells; also called M5
T1 chain: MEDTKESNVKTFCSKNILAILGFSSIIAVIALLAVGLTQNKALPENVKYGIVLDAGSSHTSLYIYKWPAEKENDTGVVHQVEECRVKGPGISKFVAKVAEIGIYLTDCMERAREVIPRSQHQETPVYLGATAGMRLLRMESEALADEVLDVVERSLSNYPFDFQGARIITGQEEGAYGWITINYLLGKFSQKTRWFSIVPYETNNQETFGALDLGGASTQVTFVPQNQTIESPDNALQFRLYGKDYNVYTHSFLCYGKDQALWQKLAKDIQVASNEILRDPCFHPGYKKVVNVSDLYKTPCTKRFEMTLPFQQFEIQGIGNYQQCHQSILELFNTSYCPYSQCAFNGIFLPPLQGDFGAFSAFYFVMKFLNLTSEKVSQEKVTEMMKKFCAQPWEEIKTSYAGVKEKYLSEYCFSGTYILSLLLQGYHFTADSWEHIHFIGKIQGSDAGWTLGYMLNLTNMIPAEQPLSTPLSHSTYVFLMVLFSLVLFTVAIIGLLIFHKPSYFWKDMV
Kind of assay: flow cytometry, Hek-293T cells expressing mutant 5. For orientation: Flow cytometry measures light scatter and fluorescence of single cells or particles in a stream.

The next assay addresses T2, CD39 mutant 11 (human, UniProt P49961 1-510).
T2 construct: Expressed on Hek-293T cells
T2 sequence: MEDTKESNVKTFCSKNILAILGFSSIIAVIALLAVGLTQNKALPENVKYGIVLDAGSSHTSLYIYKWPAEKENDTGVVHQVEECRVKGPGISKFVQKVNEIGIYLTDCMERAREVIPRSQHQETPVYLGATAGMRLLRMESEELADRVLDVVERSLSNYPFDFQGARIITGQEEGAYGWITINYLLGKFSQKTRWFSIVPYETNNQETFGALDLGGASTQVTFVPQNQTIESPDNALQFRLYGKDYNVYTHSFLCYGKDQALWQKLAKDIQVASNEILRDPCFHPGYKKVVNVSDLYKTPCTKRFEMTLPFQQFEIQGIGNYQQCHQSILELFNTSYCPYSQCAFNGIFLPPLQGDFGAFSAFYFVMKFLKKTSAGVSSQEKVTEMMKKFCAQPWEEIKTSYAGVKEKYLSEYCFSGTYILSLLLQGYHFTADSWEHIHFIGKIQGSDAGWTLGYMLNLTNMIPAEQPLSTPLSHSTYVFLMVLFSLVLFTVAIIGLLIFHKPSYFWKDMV
Kind of assay: flow cytometry, Hek-293T cells expressing mutant 11.

Assay [2] deals with T3, CD39 mutant 15 (human, UniProt P49961 1-510).
T3 construct: Expressed on Hek-293T cells; also called M15
T3 chain: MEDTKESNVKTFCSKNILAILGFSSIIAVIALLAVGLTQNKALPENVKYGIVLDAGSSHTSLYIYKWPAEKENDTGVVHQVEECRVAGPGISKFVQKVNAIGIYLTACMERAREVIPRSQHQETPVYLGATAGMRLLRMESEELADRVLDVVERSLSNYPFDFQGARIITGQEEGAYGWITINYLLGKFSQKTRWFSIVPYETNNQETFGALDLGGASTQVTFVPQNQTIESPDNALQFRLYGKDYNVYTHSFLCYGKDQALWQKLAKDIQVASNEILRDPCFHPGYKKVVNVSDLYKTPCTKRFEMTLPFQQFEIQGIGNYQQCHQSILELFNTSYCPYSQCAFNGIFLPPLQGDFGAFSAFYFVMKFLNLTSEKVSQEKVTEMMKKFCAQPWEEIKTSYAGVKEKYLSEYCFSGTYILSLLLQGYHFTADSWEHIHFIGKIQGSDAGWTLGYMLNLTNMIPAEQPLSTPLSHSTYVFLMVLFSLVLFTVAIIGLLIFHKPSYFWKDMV
The assay can be described thus: flow cytometry, Hek-293T cells expressing mutant 15.

Assay [3] has as its target T4, CD39 mutant 19 (human, UniProt P49961 1-510).
T4 construct: Expressed on Hek-293T cells; also called M19
T4 chain: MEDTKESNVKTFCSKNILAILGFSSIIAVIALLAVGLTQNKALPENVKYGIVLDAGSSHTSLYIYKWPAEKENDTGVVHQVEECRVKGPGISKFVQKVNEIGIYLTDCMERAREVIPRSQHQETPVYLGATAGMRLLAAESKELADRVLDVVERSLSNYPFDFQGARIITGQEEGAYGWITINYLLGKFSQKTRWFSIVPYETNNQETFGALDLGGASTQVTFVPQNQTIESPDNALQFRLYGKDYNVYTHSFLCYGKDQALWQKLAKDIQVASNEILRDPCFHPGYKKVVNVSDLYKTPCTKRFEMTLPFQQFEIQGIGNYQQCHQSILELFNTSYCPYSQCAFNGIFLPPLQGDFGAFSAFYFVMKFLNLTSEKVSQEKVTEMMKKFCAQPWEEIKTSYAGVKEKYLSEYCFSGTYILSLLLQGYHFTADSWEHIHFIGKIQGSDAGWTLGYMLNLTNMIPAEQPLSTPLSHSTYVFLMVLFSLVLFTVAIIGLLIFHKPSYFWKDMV
Kind of assay: flow cytometry, Hek-293T cells expressing mutant 19.

Assay [4] addresses T1, CD39 mutant 5. The assay can be described thus: flow cytometry, Hek-293T cells transfected with CD39 mutant 5 (panel M5); antibody concentration not shown.
The target of assay [5] is T4, CD39 mutant 19. Kind of assay: flow cytometry, Hek-293T cells transfected with CD39 mutant 19 (panel M19); antibody concentration not shown. On the procedure:
(§1) Mutants were transfected in Hek-293T cells, as shown in the table 1, using numbering of SEQ ID NO: 2. […] Mutant 19 includes substitutions at residues R138, M139 and E142.
(§2) Mutants were transfected in Hek-293T cells, as shown in the table 1, using numbering of SEQ ID NO: 2. Dose-ranges of test antibodies (10-2.5-0.625-0.1563-0.0391-0.0098-0.0024-0.0006 μg/ml) are tested on the 20 generated mutants by flow cytometry.

For assay [6], the target named is T3, CD39 mutant 15. The assay can be described thus: flow cytometry, Hek-293T cells transfected with CD39 mutant 15 (panel M15), table under the panel; unstained (US) 8,98; antibody concentration not shown. How it is done:
as §1, §2

The target of assay [7] is T1, CD39 mutant 5. Kind of assay: flow cytometry, Hek-293T cells transfected with CD39 mutant 5 (panel M5), Comp-Alexa Fluor 647-A. On the procedure:
as §1, §2

Assay [8] has as its target T4, CD39 mutant 19. The assay can be described thus: flow cytometry, Hek-293T cells transfected with CD39 mutant 19 (panel M19), Comp-Alexa Fluor 647-A.
Assay [9] concerns the target T3, CD39 mutant 15. The assay can be described thus: flow cytometry, Hek-293T cells transfected with CD39 mutant 15 (panel M15); antibody concentration not shown.

B1: antibody I-399 (antibody, V domains shown)
VH: PVQLQQPGAEVVMPGASVKLSCKASGYTFTSFWMNWMRQRPGQGLEWIGEIDPSDFYTNSNQRFKGKATLTVDKSSSTAYMQLSSLTSEDSAVYFCARGDFGWYFDVWGTGTSVTVSS
VL: EIVLTQSPTTMTSSPGEKITFTCSASSSINSNYLHWYQQKPGFSPKLLIYRTSNLASGVPTRFSGSGSGTSYSLTIGTMEAEDVATYYCQQGSSLPRTFGGGTKLEIK
notes: Hybridoma antibody purified with protein A
As for B1, the binding result in the assay with CD39 mutant 5 [1] is “binds”; with CD39 mutant 11 it was “no binding (tested: dose range up to 10 µg/ml)”; with CD39 mutant 15 [2], “binds”; in the assay with CD39 mutant 19 [3] it was “binds”.

B2: antibody I-395 (antibody, V domains shown)
VH: EVQLQQSGPELVKPGASVRMSCKASGYTFTDYNMHWVKKNHGKGLEWIGYINPNNGGTTYNQKFKGKATLTVNTSSKTAYMELRSLTSEDSAVYYCTRGGTRFASWGQGTLVTVSA
VL: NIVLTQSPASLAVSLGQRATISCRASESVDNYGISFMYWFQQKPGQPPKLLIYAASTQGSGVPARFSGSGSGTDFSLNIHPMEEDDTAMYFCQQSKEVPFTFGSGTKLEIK
notes: as for B1
With B2, the binding result with CD39 mutant 5 [4] and in the assay with CD39 mutant 19 [5] was “no binding” each time. For the same molecule, the “Median : Comp-Alexa Fluor 647-A” value with CD39 mutant 15 [6] came to 5750.

B3: antibody I-396 (antibody, V domains shown)
VH: EVQLQQSGAELVKPGASVKLSCIVSGFNIKDTYINWVKQRPEQGLEWIGRIDPANGNTKYDPKFQGKATMTSDTSSNTAYLHLSSLTSDDSAVYYCARWGYDDEEADYFDSWGQGTTLTVSS
VL: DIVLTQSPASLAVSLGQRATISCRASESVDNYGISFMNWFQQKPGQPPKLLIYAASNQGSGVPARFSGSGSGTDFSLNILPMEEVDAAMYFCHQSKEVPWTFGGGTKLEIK
notes: as for B1
On to B3, for which the binding result is reported as “binds” with CD39 mutant 5 [7], “binds” with CD39 mutant 19 [8] and “no binding” in the assay with CD39 mutant 15 [9]. Further, in the assay with CD39 mutant 15 [6], the “Median : Comp-Alexa Fluor 647-A” value worked out at 35.9.
